Measured values from patent publication US9395368B2, “Methods, agents and peptides for inducing an immune response to matrix metalloproteinase-2 expressing tumors” (New York University, priority 2010, dated 2016).

Legend:
IFNβ production by DCs = assay: IFNβ levels produced by poly(I:C)-matured DCs (ELISA); assay type: cell-based, human; conditions: poly(I:C)-matured DCs pre-exposed, 16 h
Description: Immature DCs were incubated with MMP-2 (0.5 μg/mL or 5 μg/mL) and poly(I:C)-matured 1 h later. IL-12 levels were measured 16 h later. (A) Results are represented as a percentage of IL-12p70 levels, measured by CBA, produced when DCs were incubated with poly(I:C) only (n=11). (B) For intracellular staining of IL-12p35 and IL-12p40 chains, Brefeldin A was added 4 h after poly(I:C) activation and cells were stained after an additional 12 h incubation. Numbers in the upper right quadrants are the percentages of each population for a representative donor (n=3). (C,D) Immature DCs were incubated with MMP-2 for 1 h (5 μg/mL) before poly(I:C) maturation. Intracellular staining of phosphorylated (Y701) STAT1 (P-STAT1) was performed 3 h later. […] IFNβ levels were measured by ELISA 16 h later. […] IFNAR1 protein expression was detected the next day by Western blot analysis using a rabbit monoclonal antibody. […]
Enzyme-linked immunosorbent assay Activation of T cell clones (10,000 cells/100 μL/well), polyclonal T cell populations (100,000 cells/100 μL/well), DCs (50,000 cells/100 μL/well) and basophils (10,000 cells/100 μL/well) was determined by ELISA. IFNγ (BioSource), TNFα (BioSource), IL-4 (BioSource), TSLP (Quantikine; R&D Systems), IFNβ (VeriKine; PBL interferon source) and MCP-3 (DuoSet; R&D Systems) contents in supernatants were measured according to the manufacturer's instructions.

[1] = test system: CD40, CD80, CD83, CD86, HLA-DR and CCR7 on DCs; assay: Expression of maturation markers by DCs; assay type: cell-based, human
Description: Antibodies. Allophycocyanin-conjugated antibody to CCR-7 (150503) was purchased from R&D Systems. Unconjugated (10 μg/mL for blocking experiments) or phycoerythrin-conjugated antibody to OX40L (11C3.1) was from Biolegend. Blocking antibody to IL-4 (8F12; 10 μg/mL) was from Acris. Antibodies to human Vβ chains covering 70% of the repertoire (10Test Beta Mark; Beckman Coulter) were used according to the manufacturer's instructions. Fluorescein isothiocyanate-conjugated antibody to IL-12p35/IL-12p70 (B-T21) and IFNAR1 (EP899Y) were from Abcam. Phycoerythrine-conjugated antibodies to IL-12p40/IL-12p70 (C8.6), IL-10 (B-T10), CD203c (FR3-16A11) were from Miltenyi Biotec. Blocking antibody to HLA-DQ (SPVL3; 20 μg/mL) was from NeoMarkers. […]
Dendritic cell preparation and activation. […] Immature DCs were harvested on day 5 and matured using poly(I:C) at 5 μg/mL/10^6 DCs (Amersham) Secretion of IL-12p70, TNFα, IL-1β, IL-6, IL-8 and IL-10 was assessed on both immature and mature DCs using the Human Inflammatory Cytokine Cytometric Bead Array (BD Pharmingen).
We next evaluated whether DCs could be involved in the polarization of MMP-2-specific CD4^+ T cells.

rhIFNAR1 = assay: Overnight incubation of rhIFNAR1 with MMP-2 (Western blot); assay type: biochemical, human; conditions: incubated overnight
Description: Immature DCs were incubated with MMP-2 (0.5 μg/mL or 5 μg/mL) and poly(I:C)-matured 1 h later. IL-12 levels were measured 16 h later. (A) Results are represented as a percentage of IL-12p70 levels, measured by CBA, produced when DCs were incubated with poly(I:C) only (n=11). (B) For intracellular staining of IL-12p35 and IL-12p40 chains, Brefeldin A was added 4 h after poly(I:C) activation and cells were stained after an additional 12 h incubation. Numbers in the upper right quadrants are the percentages of each population for a representative donor (n=3). (C,D) Immature DCs were incubated with MMP-2 for 1 h (5 μg/mL) before poly(I:C) maturation. Intracellular staining of phosphorylated (Y701) STAT1 (P-STAT1) was performed 3 h later. A representative donor (C) and results for all 3 donors (D) are shown. […] (E) Immature DCs were incubated with MMP-2 and poly(I:C)-matured 1 h later. IFNβ levels were measured by ELISA 16 h later. Results are represented as a percentage of IFNβ levels produced when DCs were incubated with poly(I:C) only (n=9). (F,G) 10^6DCs/lane were treated with 0.1 μg MMP-2 or controls. Poly(I:C) was added 1 h later. IFNAR1 protein expression was detected the next day by Western blot analysis using a rabbit monoclonal antibody. […]
Western blots IFNAR1 and β-actin were detected by Western blot analysis using rabbit and mouse mAbs, respectively. […]

B1: active MMP-2: Purified human MMP-2 (mixture of the proenzyme (50%) and the active form (50%)) purchased from Biomol (protein, listed as Homo sapiens)
chain: MEALMARGALTGPLRALCLLGCLLSHAAAAPSPIIKFPGDVAPKTDKELAVQYLNTFYGCPKESCNLFVLKDTLKKMQKFFGLPQTGDLDQNTIETMRKPRCGNPDVANYNFFPRKPKWDKNQITYRIIGYTPDLDPETVDDAFARAFQVWSDVTPLRFSRIHDGEADIMINFGRWEHGDGYPFDGKDGLLAHAFAPGTGVGGDSHFDDDELWTLGEGQVVRVKYGNADGEYCKFPFLFNGKEYNSCTDTGRSDGFLWCSTTYNFEKDGKYGFCPHEALFTMGGNAEGQPCKFPFRFQGTSYDSCTTEGRTDGYRWCGTTEDYDRDKKYGFCPETAMSTVGGNSEGAPCVFPFTFLGNKYESCTSAGRSDGKMWCATTANYDDDRKWGFCPDQGYSLFLVAAHEFGHAMGLEHSQDPGALMAPIYTYTKNFRLSQDDIKGIQELYGASPDIDLGTGPTPTLGPVTPEICKQDIVFDGIAQIRGEIFFFKDRFIWRTVTPRDKPMGPLLVATFWPELPEKIDAVYEAPQEEKAVFFAGNEYWIYSASTLERGYPKPLTSLGLPPDVQRVDAAFNWSKNKKTYIFAGDKFWRYNEVKKKMDPGFPKLIADAWNAIPDNLDAVVDLQGGGHSYFFKGAYYLKLENQSLKSVKFGSIKSDWLGC
IFNβ levels (IFNβ production by DCs): decreased levels
expression levels of maturation markers CD40, CD80, CD83, CD86, HLA-DR and CCR7 [1]: not significantly affected
degradation of rhIFNAR1 (≈110 kD) (rhIFNAR1): degraded
